The supplement of paper PMC10567573
± gives the standard deviation.

Test: protein stability index of a GFP-peptide fusion (GPS, HEK-293T) (PSI 1-6); higher = more stable
Conditions: c terminus: a fixed tail appended
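Note: 24-mer peptide tiles fused after GFP, lentivirally expressed, FACS-sorted into six equal bins by GFP/DsRed ratio, decoded by Illumina sequencing, PSI is the read-weighted mean bin number.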

Sequence	protein stability index (treatment: DMSO)	protein stability index (treatment: MLN4924 1 uM, 8 h)
AGLLIIVLAIIAREGDCAPEEKIW [MAGEA3]	3.25 ± 0.46	2.8 ± 0.34
DHVDLSLSCTLVPRSGEQAEGSPG [CDKN1A]	4.91 ± 0.17	5.08 ± 0.23
TERLSHQITSRVVSAATQLRHFFL [RTN2]	4.1 ± 0.17	4.08 ± 0.14
ENTAETITRVLYEVFIEWGISAKV [ZBED1]	2.82 ± 0.088	2.78 ± 0.72
FYMRTNPFYPEVELNFISVFWPQL [MMP1]	3.11 ± 0.38	2.89 ± 0.25
SSQDRMFETMAIEIEQLLARLTGV [GOSR1]	2.52 ± 0.24	2.62 ± 0.44
GPPHARISQHGDPLLSNTFTETNN [EMID1]	4.31 ± 0.13	4.748 ± 0.028
HHKTYDPTYSDFCQFRPPVRVNDG [VDR]	3.38 ± 0.29	3.28 ± 0.16
AGRGGAAGTAGVGETGSGDQAGGE [MYOZ1]	5.63 ± 0.24	5.43 ± 0.32
ERHSDLPPLNPTSWWADLRALARN [SPNS1]	3.34 ± 0.5	3.34 ± 0.38
QRLKAVIVIQTYYRQWHAKIFVEN [IQUB]	2.83 ± 0.5	2.79 ± 0.79
RSVRRERLKEMKLLRDQFVKALED [FAM9B]	3.22 ± 0.27	3.05 ± 0.57
KDLFTQRQNSAPARMLSSNERDSS [CDC25A]	4.88 ± 0.23	4.84 ± 0.25
LWVEERALLEGEKALWEDKTSLWE [CCDC70]	2.6 ± 0.036	3 ± 0.11
QLKRQKRDYIHSLKLLNVLEEYIT [FAM9B]	2.28 ± 0.55	2.56 ± 0.42
ELALALKGNTTLQQLDLRWNNVGL [LRRC45]	2.19 ± 0.42	2.07 ± 0.35
DKITGQSLGYGFVNYSDPNDADKA [ELAVL3]	4.81 ± 0.24	4.82 ± 0.15
YRKQNAYIATQGSLPETFGDFWRM [PTPRD]	2.54 ± 0.39	2.12 ± 0.08
QAQPGEATSGPPGIQPGQEPPVTM [PALM]	5.6 ± 0.19	5.33 ± 0.24
ANISIANKYDNTCLMIAAYKGHTD [FEM1B]	2.75 ± 0.17	2.98 ± 0.32
GRLIQLSRDGATGHVLLTDSEFSM [PPFIA4]	2.24 ± 0.22	2.17 ± 0.46
SLNRACHQQNKIKDLQKEQKTLQV [CEP70]	3.53 ± 0.66	3.45 ± 0.45
EGYCQAQAPIAAVLLMHMPAEQAF [TBC1D10A]	2.33 ± 0.49	2.03 ± 0.27

Sequence	protein stability index (treatment: DMSO)	protein stability index (treatment: MLN4924 1 uM, 8 h)
ESLREELICLKKNHEEEVNTLRSQ [KRT34]	4.91 ± 0.23	5.04 ± 0.23
DQEHNVAALKQAIKDKEAPLHVAQ [TEKT4]	5.11 ± 0.19	5.18 ± 0.15
HPVTIGGKIVGSLCAIAGVLTIAL [KCNA3]	2.6 ± 0.42	2.05 ± 0.28
PDTGDNARLTYSIVGNQVQGAPAS [PCDHGC5]	4.42 ± 0.37	4.52 ± 0.52
LQVIKALKSSGLCESLTYGLPFIL [M1AP]	3.04 ± 0.94	2.81 ± 0.83
TAEMARVLTDSNHVPLQRLSLLVH [FBXO33]	2.83 ± 0.39	2.79 ± 0.096
DFTTAAEDQPINLCDKLPPATALG [NOL4L]	4.83 ± 0.18	4.78 ± 0.1
GSAPFLFLSLACARGSIVATYIFI [SPNS1]	3.15 ± 0.53	2.9 ± 0.46
PQTPEPVEGRKHVDVQTELYLEEI [RSPH3]	3.78 ± 0.24	4 ± 0.58
TRVNLSSDTESTDLPSSTPVANSG [DLC1]	5.05 ± 0.1	5.26 ± 0.11
FSKQIVLRGKSIKRAPGEETEKEE [NEUROD6]	4.94 ± 0.28	5.1 ± 0.34
QSPDEKPLVALDTDSDDDFDMSRY [FAM219A]	5.44 ± 0.26	5.46 ± 0.23
YILELDDGNGGQFREVYVGKETMC [TRIM9]	2.28 ± 0.11	2.29 ± 0.16
DMSWTCGNQDYKYRVSDVTKAGHS [VDR]	2.73 ± 0.15	2.74 ± 0.095
PGEDENPEKASELSQVELQAAPGA [TRIM55]	5.56 ± 0.27	5.72 ± 0.2
VQLSQIQGLIGSVEEQLAQLRCEM [KRT17]	3.04 ± 0.36	2.79 ± 0.32
IEDDIRPEKQKRKPGLRRSPIKKV [MYBL2]	5.01 ± 0.25	4.83 ± 0.23
YLCFLLAVLLQLYVATEAILIALV [SLC22A15]	2.64 ± 0.38	2.51 ± 0.63
AYLVPYLVLLIIIGIPLFFLELAV [SLC6A17]	3.83 ± 0.52	2.87 ± 0.28
GARPLSTRVPRAAIVFTDGRAQDD [MATN2]		4.48 ± 0.68
LLKRIKKCCGMRNTDVSMENMVTV [KCNK9]	2.22 ± 0.52	2.32 ± 0.25
KSITSAMNELQHDLDVVSDALAKV [TPH1]	4.4 ± 0.18	4.47 ± 0.12
PRNADKIRVKIADLGNACWVHKHF [SRPK2]	2.26 ± 0.12	2.42 ± 1.3

Sequence	protein stability index (treatment: DMSO)	protein stability index (treatment: MLN4924 1 uM, 8 h)
CSQYDRVYCGAGVQKEHEEYMKNL [PCMTD2]	2.93 ± 0.61	2.6 ± 0.55
RNTHKDLLRFAQVFSQMIHLNETV [FEM1B]	2.74 ± 0.7	2.34 ± 0.48
LVLLRDGRTLIGFLRSIDQFANLV [LSM1]	2.23 ± 0.52	2.47 ± 0.47
DGTAENGIHPLSSSEVDELIHKAD [PALM]	5.38 ± 0.2	5.35 ± 0.42
GHNFCRGCVSRCWEVQVSPTCPVC [TRIM35]	3.86 ± 0.22	3.83 ± 0.38
DLEAVVPQNGSETGWARKGLGNTW [ATP23]	3.42 ± 0.2	3.38 ± 0.44
STKPSGSPLEEKHDQCKCENLIMF [MATN2]	3.3 ± 0.15	3.41 ± 0.099
KVHMKDVMSALWVSGLDSSYLREQ [GAN]	2.1 ± 0.47	2.23 ± 0.26
GRGNFPTLEITLKDIVQTVRSRLE [TENT5C]	2.65 ± 0.36	2.31 ± 0.2
NLFEGMIWFIVPISCVICNDIMAY [CDS2]	3.44 ± 0.44	3.26 ± 0.74
SGRGTGRGGGGGGGGGAPRGRYGP [SRSF1]	4.79 ± 0.24	4.83 ± 0.15
LIANRSYKVSAASSFFFSGVFVGV [SLC22A15]	2.69 ± 0.8	2.49 ± 0.64
EGEEDATSEVDKRRTRPRHHHGRS [CHGB]	5.35 ± 0.47	5.33 ± 0.28
IHSCFSDVTCFLLPHPGLQVATSP [ATL3]	2.34 ± 0.7	2.29 ± 0.49
LEQCSASIEVGGSVNFDGETIEGA [FEM1C]	5.4 ± 0.3	5.14 ± 0.57
LLGATKRSMVFKDVLLLGNDYIVP [HNF4A]	2.28 ± 0.34	2.3 ± 0.11
EAALNSKDAALATALGDKKSLEGD [LMNB1]	5.52 ± 0.25	5.5 ± 0.078
RRLKTTRLKEYTIKSHSSLPPNNS [DAPK3]	3.44 ± 0.3	3.61 ± 0.28
ESTTVVTTQSAEVGAAETTLTELR [KRT18]	5.37 ± 0.076	5.29 ± 0.22
IRESDPEQAPAPGEATAAPAPLCG [TBX6]	5.32 ± 0.53	5.31 ± 0.2
SLQKLSTKLSAQSAQYSQQLQAAR [FCHSD1]	3.34 ± 0.18	3.54 ± 0.22
RIHSGKKPYACDECAKAFSRSAIL [ZNF396]	2.31 ± 0.4	2.38 ± 0.33
NCSGPAPAAKPDPDGGRADEWACE [P3H4]	5.36 ± 0.17	5.44 ± 0.16

Sequence	protein stability index (treatment: DMSO)	protein stability index (treatment: MLN4924 1 uM, 8 h)
GCQPEDRRRRIIINVGGIKYSLPW [KCNG1]	2.36 ± 0.52	2.5 ± 0.44
LVRGHRRRLLRRLSPSRGVAQCLR [ZSWIM9]	3.2 ± 0.23	3.41 ± 0.25
ETRRRMEMAFNTRCKEENTIILQQ [NLN]	2.66 ± 0.36	2.98 ± 0.23
NVTELLRDVAAWGRARATGGDLEE [DNAAF3]	3.63 ± 0.15	3.75 ± 0.31
SVLEQLELQEKQKNEKLISLQEQL [TAF7L]	4.24 ± 0.25	4.19 ± 0.3
SELGDYDPDECGSDYISEFRFAPN [EPB41L3]	2.22 ± 0.34	3.12 ± 0.78
VTLARQAGEVVCEAIKNEMNVMLK [IMPA1]	2.44 ± 0.4	2.44 ± 0.45
LTQLHRLSLESSPDAPDHTSETSH [PLEKHN1]	5.23 ± 0.32	5.22 ± 0.21
LPLGIKVYEDETKVVHAVDGTAEN [PALM]	5.02 ± 0.17	5.03 ± 0.23
YQNELHKFLIWDTAGQERFRALAP [RAB22A]	2.29 ± 0.045	2.46 ± 0.37
KGPLVPFPNQKSEAAEPPKTPPSS [KMT5A]	5.25 ± 0.25	5.39 ± 0.21
VEILDLNDNSPSFATPEREMRISE [PCDHGC5]	4.08 ± 0.31	4.2 ± 0.28
SEAQLTDAETSKLIYDFIEDQGGL [WAS]	4.53 ± 0.38	4.62 ± 0.23
YFDPLRNEYFFDRNRPSFDAILYY [KCNA3]	2.62 ± 0.54	2.44 ± 0.32
SELDADHPGFKDNVYRKRRKYFAD [TPH1]	4.13 ± 0.21	4.19 ± 0.2
FLKAVLRQERVSLYPFQIHSIALS [CDS1]	2.01 ± 0.23	2.42 ± 0.91
TYWEHWTSQGQVRMRLFGQRCQKC [RTP4]	2.33 ± 0.43	2.72 ± 0.57
RGQVGLVPKNYVVVLSDGPALHPA [NCK2]	2.56 ± 0.29	2.43 ± 0.23
LKTLEEGLEGLEDAPPVELQLLHE [FANCE]	4.81 ± 0.26	4.91 ± 0.38
TSEQAPSSAPRDVQARMLSSTTIL [PTPRD]	4.08 ± 0.15	4.03 ± 0.38
GQQSDTAQLELYQLQVESNSSQLL [SCARA5]	4.12 ± 0.13	4.16 ± 0.15
